Square brackets hold non-standard residues; d marks the D form. Oic = O=C(O)[C@@H]1C[C@@H]2CCCC[C@@H]2N1; Tic = O=C(O)[C@@H]1Cc2ccccc2CN1; Dab = NCC[C@H](N)C(=O)O; Deg = CCC(N)(CC)C(=O)O; Aib = CC(C)(N)C(=O)O
Target: human CCR10 (human) (UniProt P46092)
Test: cell-based or functional assay

Sequence of human CCR10 (human) (P46092 whole entry): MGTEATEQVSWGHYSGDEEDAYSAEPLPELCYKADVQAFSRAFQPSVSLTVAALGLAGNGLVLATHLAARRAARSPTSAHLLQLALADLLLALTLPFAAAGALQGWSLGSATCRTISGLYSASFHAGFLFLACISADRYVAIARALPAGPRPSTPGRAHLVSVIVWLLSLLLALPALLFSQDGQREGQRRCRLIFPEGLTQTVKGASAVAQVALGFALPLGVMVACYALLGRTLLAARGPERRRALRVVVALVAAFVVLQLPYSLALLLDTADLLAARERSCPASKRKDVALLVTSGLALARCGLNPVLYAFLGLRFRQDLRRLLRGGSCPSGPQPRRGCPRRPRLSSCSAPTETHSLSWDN

cyclo(-Trp-Cyp-Trp-Ser(Me)-^DPro-Oic-) (peptide)
IC50 (nM) Calcium Flux Assay: 46.4 nM | IC50 (nM) Chemotaxis Assay: 10.1 nM

cyclo(-Trp-Cyp-Trp-Arg-^DAze-Tic-) (peptide)
IC50 (nM) Calcium Flux Assay: 70.4 nM

cyclo(-Trp-Cyp-Trp-Dap(CONH2)-^DPro-Oic-) (peptide)
IC50 (nM) Calcium Flux Assay: 20 nM | IC50 (nM) Chemotaxis Assay: 4.7 nM

cyclo(-Trp-Cyp-Trp-Gln(iPr)-^DPro-Oic-) (peptide)
IC50 (nM) Calcium Flux Assay: 25.1 nM | IC50 (nM) Chemotaxis Assay: 1 nM

cyclo(-Phe(4CF3)-Cyp-Trp-Dab-^DPro-Oic-) (peptide)
IC50 (nM) Calcium Flux Assay: 58.1 nM | IC50 (nM) Chemotaxis Assay: 13.4 nM

cyclo(-hTyr-Cyp-Trp-Dab-^DPro-Oic-) (peptide)
IC50 (nM) Calcium Flux Assay: 516 nM | IC50 (nM) Chemotaxis Assay: 13 nM

cyclo(-Trp-Cyp-Trp-Ser-^DPro-Hyp(Bn)-) (peptide)
IC50 (nM) Calcium Flux Assay: 12.6 nM | IC50 (nM) Chemotaxis Assay: 35.4 nM

cyclo(-Trp-Cyp-Trp-Dap(MeO(CH2)2)-^DPro-Oic-) (peptide)
IC50 (nM) Calcium Flux Assay: 56.8 nM | IC50 (nM) Chemotaxis Assay: 6.9 nM

cyclo(-Trp-Cyp-Phe(4F)-Ser-^DPro-Oic-) (peptide)
IC50 (nM) Calcium Flux Assay: 8.8 nM | IC50 (nM) Chemotaxis Assay: 12 nM

cyclo(-Trp-Cyp-Trp-Lys(4Oxa)-^DPro-Oic-) (peptide)
IC50 (nM) Calcium Flux Assay: 107 nM | IC50 (nM) Chemotaxis Assay: 5.9 nM

cyclo(-Trp(6Cl)-Cyp-Trp-Dab-^DPro-Hyp(Bn)-) (peptide)
IC50 (nM) Calcium Flux Assay: 8.5 nM | IC50 (nM) Chemotaxis Assay: 8.6 nM

cyclo(-Trp-Cyp-Trp-Dab(4Me2NPhSO2)-^DPro-Oic-) (peptide)
IC50 (nM) Calcium Flux Assay: 6.4 nM

cyclo(-Trp-Chx-Trp-Dab-^DPro-Oic-) (peptide)
IC50 (nM) Calcium Flux Assay: 333 nM | IC50 (nM) Chemotaxis Assay: 3.1 nM

cyclo(-Trp-Cyp-Trp-Dab-^DPro-Pro((4R)Bn)-) (peptide)
IC50 (nM) Calcium Flux Assay: 26.1 nM | IC50 (nM) Chemotaxis Assay: 2.3 nM

cyclo(-Phe(4CN)-Cyp-Trp-Dab-^DPro-Hyp(Bn)-) (peptide)
IC50 (nM) Calcium Flux Assay: 181 nM | IC50 (nM) Chemotaxis Assay: 5.3 nM

cyclo(-Trp-Cyp-Trp-Met(O2)-^DPro-Oic-) (peptide)
IC50 (nM) Calcium Flux Assay: 4.8 nM | IC50 (nM) Chemotaxis Assay: 1.2 nM

cyclo(-Phe(4CN)-Cyp-Trp-Ser-^DPip-Hyp(Bn)-) (peptide)
IC50 (nM) Calcium Flux Assay: 0.5 nM | IC50 (nM) Chemotaxis Assay: 1.8 nM

cyclo(-Trp-Cyp-Trp-Dab-^DPro-Hyp(4BrBn)-) (peptide)
IC50 (nM) Calcium Flux Assay: 11.6 nM | IC50 (nM) Chemotaxis Assay: 2.5 nM

cyclo(-Phe(4CN)-Cyp-Trp-Ser-^DPro-Hyp(4BrBn)-) (peptide)
IC50 (nM) Calcium Flux Assay: 5.3 nM | IC50 (nM) Chemotaxis Assay: 0.6 nM

cyclo(-Trp-Chx(4-oxo)-Trp-Dab-^DPro-Oic-) (peptide)
IC50 (nM) Calcium Flux Assay: 262 nM | IC50 (nM) Chemotaxis Assay: 17.8 nM

cyclo(-Trp-Cyp-Trp-Dab((MeO(CH2)2)(Me)NCO)-^DPro-Oic-) (peptide)
IC50 (nM) Calcium Flux Assay: 8.1 nM | IC50 (nM) Chemotaxis Assay: 5.6 nM

cyclo(-Tyr(40HPh)-Cyp-Trp-Dab-^DPro-Oic-) (peptide)
IC50 (nM) Calcium Flux Assay: 48.9 nM | IC50 (nM) Chemotaxis Assay: 6.6 nM

cyclo(W[Aib]W[Dab][dP][Tic])
IC50 (nM) Calcium Flux Assay: 200 nM | IC50 (nM) Chemotaxis Assay: 21.6 nM

cyclo(-Trp-Cyp-Trp-Dab-^DPro-Hyp-) (peptide)
IC50 (nM) Calcium Flux Assay: 190 nM

cyclo(-2Nal-Cyp-Trp-Gln-^DPro-Tic-) (peptide)
IC50 (nM) Calcium Flux Assay: 9.2 nM | IC50 (nM) Chemotaxis Assay: 2 nM

cyclo(-Trp(5OH)-Cyp-Trp(5OH)-Dap-^DPro-Oic-) (peptide)
IC50 (nM) Calcium Flux Assay: 246 nM

cyclo(-Trp-Cyp-Trp-Dap-^DPro-Oic-) (peptide)
IC50 (nM) Calcium Flux Assay: 52.7 nM

cyclo(-Trp-Cyp-Trp-alloThr-^DPro-Oic-) (peptide)
IC50 (nM) Calcium Flux Assay: 11.6 nM | IC50 (nM) Chemotaxis Assay: 1.2 nM

cyclo(-Trp-Cyp-Trp-Dab-^DPro-Pro((4R)4BrBn)-) (peptide)
IC50 (nM) Calcium Flux Assay: 15.8 nM | IC50 (nM) Chemotaxis Assay: 9 nM

cyclo(-Trp-Cyp-Trp-Dab-^DPro-Thz-) (peptide)
IC50 (nM) Calcium Flux Assay: 134 nM | IC50 (nM) Chemotaxis Assay: 19.6 nM

cyclo(-Trp-Cyp-Phe(4Cl)-Dab-^DPro-Hyp(Bn)-) (peptide)
IC50 (nM) Calcium Flux Assay: 39.9 nM

cyclo(-Trp-Cyp-Tyr(Ph)-Dab-^DPro-Oic-) (peptide)
IC50 (nM) Calcium Flux Assay: 602 nM | IC50 (nM) Chemotaxis Assay: 208 nM

cyclo(-Trp-Cyp-Trp-Dab(MeO(CH2)2NHCO)-^DPro-Oic-) (peptide)
IC50 (nM) Calcium Flux Assay: 24.2 nM | IC50 (nM) Chemotaxis Assay: 5.3 nM

cyclo(-Phe(4CN)-Cyp-Trp-Gln-^DPro-Hyp(Bn)-) (peptide)
IC50 (nM) Calcium Flux Assay: 21.7 nM

cyclo(-Trp-Cyp-Trp-hArg-^DPro-Oic-) (peptide)
IC50 (nM) Calcium Flux Assay: 25 nM | IC50 (nM) Chemotaxis Assay: 3.7 nM

cyclo(-Cha-Cyp-Trp-Dab-^DPro-Oic-) (peptide)
IC50 (nM) Calcium Flux Assay: 243 nM

cyclo(-Trp-Cyp-Trp-Dab(MePpzCO)-^DPro-Oic-) (peptide)
IC50 (nM) Calcium Flux Assay: 53.9 nM | IC50 (nM) Chemotaxis Assay: 5.3 nM

cyclo(W[Deg]W[Dab][dP][Oic])
IC50 (nM) Calcium Flux Assay: 146 nM | IC50 (nM) Chemotaxis Assay: 76.1 nM

cyclo(-Trp-Cyp-Trp-Dab-^DPro-(4S)-Hyp(Bn)-) (peptide)
IC50 (nM) Calcium Flux Assay: 260 nM | IC50 (nM) Chemotaxis Assay: 60.1 nM

cyclo(-Trp-Cyp-Trp-hCys-^DPro-Oic-) (peptide)
IC50 (nM) Calcium Flux Assay: 54.9 nM | IC50 (nM) Chemotaxis Assay: 8.7 nM

cyclo(-Trp-Cyp-Trp-Dap((MeO(CH2)2)2)-^DPro-Oic-) (peptide)
IC50 (nM) Calcium Flux Assay: 399 nM | IC50 (nM) Chemotaxis Assay: 15.2 nM

cyclo(-Trp-Cyp-Trp-Dab-^DPip-Oic-) (peptide)
IC50 (nM) Calcium Flux Assay: 26 nM | IC50 (nM) Chemotaxis Assay: 17 nM

cyclo(-Trp-Cyp-Ala(2Quin)-Dab-^DPro-Oic-) (peptide)
IC50 (nM) Calcium Flux Assay: 283 nM | IC50 (nM) Chemotaxis Assay: 30.3 nM

cyclo(-Trp-Cyp-Trp-Ala(Ppz)-^DPro-Oic-) (peptide)
IC50 (nM) Calcium Flux Assay: 1060 nM | IC50 (nM) Chemotaxis Assay: 16.4 nM

cyclo(-Trp-Cyp-Phe(4F)-Dab-^DPro-Oic-) (peptide)
IC50 (nM) Calcium Flux Assay: 120 nM

cyclo(-Trp-Cyp-Trp-Dab(MeSO2)-^DPro-Oic-) (peptide)
IC50 (nM) Calcium Flux Assay: 0.2 nM | IC50 (nM) Chemotaxis Assay: 3.4 nM

cyclo(-Trp(5OH)-Cyp-Trp-Gln-^DPro-Thz-) (peptide)
IC50 (nM) Calcium Flux Assay: 144 nM | IC50 (nM) Chemotaxis Assay: 3.1 nM

cyclo(-Trp-Cyp-Phe(4Cl)-Ser-^DPro-Oic-) (peptide)
IC50 (nM) Calcium Flux Assay: 6.1 nM | IC50 (nM) Chemotaxis Assay: 2.7 nM

cyclo(-Trp-Cyp-Trp-Dab(morphCO)-^DPro-Oic-) (peptide)
IC50 (nM) Calcium Flux Assay: 3 nM | IC50 (nM) Chemotaxis Assay: 11.1 nM

cyclo(-Trp-Cyp-Tyr(Me)-Dab-^DPro-Oic-) (peptide)
IC50 (nM) Calcium Flux Assay: 214 nM | IC50 (nM) Chemotaxis Assay: 3.8 nM

cyclo(-Trp-Ac8c-Trp-Dab-^DPro-Oic-) (peptide)
IC50 (nM) Calcium Flux Assay: 706 nM | IC50 (nM) Chemotaxis Assay: 257 nM

cyclo(-Trp-Cyp-Trp-Lys(Nic)-^DPro-Oic-) (peptide)
IC50 (nM) Calcium Flux Assay: 49.5 nM | IC50 (nM) Chemotaxis Assay: 8.8 nM

cyclo(-Trp-Cyp-Trp-Ser-^DPip-Oic-) (peptide)
IC50 (nM) Calcium Flux Assay: 6.9 nM | IC50 (nM) Chemotaxis Assay: 9.6 nM

cyclo(-Phe(3CF3)-Cyp-Trp-Dab-^DPro-Oic-) (peptide)
IC50 (nM) Calcium Flux Assay: 41.1 nM | IC50 (nM) Chemotaxis Assay: 3.2 nM

cyclo(-Bip-Cyp-Trp-Dab-^DPro-Oic-) (peptide)
IC50 (nM) Calcium Flux Assay: 8.1 nM | IC50 (nM) Chemotaxis Assay: 1.8 nM

cyclo(-Phe(4CN)-Cyp-Trp-Dab-^DPro-Oic-) (peptide)
IC50 (nM) Calcium Flux Assay: 280 nM | IC50 (nM) Chemotaxis Assay: 48 nM

cyclo(-Phe(4COOMe)-Cyp-Trp-Dab-^DPro-Oic-) (peptide)
IC50 (nM) Calcium Flux Assay: 476 nM | IC50 (nM) Chemotaxis Assay: 14.7 nM

cyclo(-Trp-Cyp-Trp-Dab(Ac)-^DPro-Oic-) (peptide)
IC50 (nM) Calcium Flux Assay: 30.3 nM | IC50 (nM) Chemotaxis Assay: 4.8 nM

cyclo(-Tyr(Ph)-Cyp-Trp-Dab-^DPro-Oic-) (peptide)
IC50 (nM) Calcium Flux Assay: 1.1 nM | IC50 (nM) Chemotaxis Assay: 1.7 nM

cyclo(-Trp(5OH)-Chx-Trp(5OH)-Arg-^DPro-Oic-) (peptide)
IC50 (nM) Calcium Flux Assay: 548 nM | IC50 (nM) Chemotaxis Assay: 11.6 nM

cyclo(-Trp-Cyp-Trp-Arg-^DPro-Thz-) (peptide)
IC50 (nM) Calcium Flux Assay: 70.6 nM

cyclo(-Trp-Cyp-Trp-Ser-^DPro-Oic-) (peptide)
IC50 (nM) Calcium Flux Assay: 61.6 nM | IC50 (nM) Chemotaxis Assay: 1.4 nM

cyclo(-Trp-Cyp-Ala(2Furyl)-Dab-^DPro-Oic-) (peptide)
IC50 (nM) Calcium Flux Assay: 132 nM

cyclo(-Trp-Ac7c-Trp-Dab-^DPro-Oic-) (peptide)
IC50 (nM) Calcium Flux Assay: 393 nM | IC50 (nM) Chemotaxis Assay: 7.2 nM

cyclo(-Phe(4CF3)-Cyp-Trp-Dab-^DPro-Hyp(4BrBn)-) (peptide)
IC50 (nM) Calcium Flux Assay: 22.6 nM

cyclo(-Bbta-Cyp-Trp-Dab-^DPro-Oic-) (peptide)
IC50 (nM) Calcium Flux Assay: 220 nM | IC50 (nM) Chemotaxis Assay: 18.9 nM

cyclo(-Nle(6OBn)-Cyp-Trp-Dab-^DPro-Oic-) (peptide)
IC50 (nM) Chemotaxis Assay: 16.6 nM

cyclo(W[Aib]WR[dP][Tic])
IC50 (nM) Calcium Flux Assay: 226 nM | IC50 (nM) Chemotaxis Assay: 94 nM

cyclo(-Trp-^DLAtc-Trp-Dab-^DPro-Oic-) (peptide)
IC50 (nM) Calcium Flux Assay: 608 nM

cyclo(-Trp-Cyp-Trp-Arg-^DPro-Tic(7OH)-) (peptide)
IC50 (nM) Calcium Flux Assay: 78.5 nM

cyclo(-Trp-Cyp-Trp-Dab-^DPro-Oic-) (peptide)
IC50 (nM) Calcium Flux Assay: 123 nM | IC50 (nM) Chemotaxis Assay: 29 nM

cyclo(-2Nal-Cyp-Trp-Dab-^DPip-Pip-) (peptide)
IC50 (nM) Calcium Flux Assay: 43.2 nM | IC50 (nM) Chemotaxis Assay: 9.7 nM

cyclo(-Phe(4CF3)-Cyp-Trp-3Pal-^DPic-Oic-) (peptide)
IC50 (nM) Calcium Flux Assay: 63.2 nM | IC50 (nM) Chemotaxis Assay: 2.7 nM

cyclo(-Trp-Cyp-Trp-Lys(Bz)-^DPro-Oic-) (peptide)
IC50 (nM) Calcium Flux Assay: 3 nM | IC50 (nM) Chemotaxis Assay: 2.7 nM

cyclo(-Trp(5OH)-Cyp-Trp-Arg-^DPro-Tic-) (peptide)
IC50 (nM) Calcium Flux Assay: 52.5 nM

cyclo(-Trp-Cyp-Trp-Dab-^DPro-Pro(5,5Me2)-) (peptide)
IC50 (nM) Calcium Flux Assay: 82.5 nM | IC50 (nM) Chemotaxis Assay: 14.2 nM
